We go through five molecules from US20260092096A1 (35PHARMA, published 2026).

Where only a bound is given, the exact number is not on record here.

What all share (experiment): cell-based or functional assay
One assay addresses T1, activin A (human, UniProt P08476 311-426).
T1 sequence (looked up): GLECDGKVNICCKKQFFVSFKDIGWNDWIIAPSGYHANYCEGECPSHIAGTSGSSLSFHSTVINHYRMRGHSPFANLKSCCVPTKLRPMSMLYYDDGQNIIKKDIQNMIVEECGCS

A further assay has as its target T2, activin B (UniProt P09529 293-407).
T2 sequence (looked up): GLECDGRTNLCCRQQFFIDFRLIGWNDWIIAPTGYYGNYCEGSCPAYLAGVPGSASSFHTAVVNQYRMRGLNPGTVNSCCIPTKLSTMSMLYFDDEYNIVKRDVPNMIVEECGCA

A further assay deals with T3, GDF-11 (UniProt O95390 299-407).
T3 sequence (looked up): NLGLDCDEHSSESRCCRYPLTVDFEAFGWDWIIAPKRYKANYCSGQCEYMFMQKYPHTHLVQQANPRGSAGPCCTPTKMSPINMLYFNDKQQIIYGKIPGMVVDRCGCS

A further assay addresses T4, BMP-9 (UniProt Q9UK05 320-429).
T4 sequence (looked up): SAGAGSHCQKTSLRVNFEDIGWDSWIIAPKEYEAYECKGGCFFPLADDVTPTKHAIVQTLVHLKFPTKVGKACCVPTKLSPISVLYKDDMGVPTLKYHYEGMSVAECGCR

Another assay deals with T5, BMP-10 (UniProt O95393 317-424).
T5 sequence (looked up): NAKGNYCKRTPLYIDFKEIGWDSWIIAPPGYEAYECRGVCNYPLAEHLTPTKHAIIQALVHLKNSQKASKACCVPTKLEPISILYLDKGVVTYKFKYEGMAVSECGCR

The next assay deals with T6, GDF-8 (UniProt O14793 267-375).
T6 sequence (looked up): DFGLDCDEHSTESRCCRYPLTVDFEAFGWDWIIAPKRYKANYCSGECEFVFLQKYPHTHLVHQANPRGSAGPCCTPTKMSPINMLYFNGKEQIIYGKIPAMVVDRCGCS

Consider “P754 (hActRIIB T69Q, 14 aa linker, IgG1-DL) (Fc fusion)”, for which the IC50, TGFβ-reporter HEK293 cell-based neutralization assay in the assay with activin A is 1.5 nM; in the assay with activin B, 2.1 nM; with GDF-11, 1.6 nM. Moreover, the IC50, BMP-reporter HepG2 cell-based neutralization assay with BMP-9 is 3.5 nM; in the assay with BMP-10, 2.5 nM.
“P739 (hActRIIB G27E, 14 aa linker, IgG1-DL) (Fc fusion)”: the IC50, TGFβ-reporter HEK293 cell-based neutralization assay was determined as 3.5 nM with activin A, 6 nM with activin B, 2 nM with GDF-8 and 2.1 nM with GDF-11. In addition, the figures for the IC50, BMP-reporter HepG2 cell-based neutralization assay with BMP-9 and with BMP-10 were 1.1 nM and 4 nM, respectively. The fold increase in neutralization potency relative to P75 in the assay with BMP-9 stood at 2 fold.
Consider “P753 (hActRIIB T69H, 14 aa linker, IgG1-DL) (Fc fusion)”, for which the IC50, TGFβ-reporter HEK293 cell-based neutralization assay in the assay with activin A turned out to be 1.6 nM; with activin B, 2.4 nM; with GDF-8, 1.4 nM; in the assay with GDF-11, 1.5 nM. In the assay with activin A, this molecule gave a fold increase in neutralization potency relative to P75 of 1.5 fold. The IC50, BMP-reporter HepG2 cell-based neutralization assay in the assay with BMP-9 amounted to 2.1 nM; with BMP-10, 2.9 nM.

B1: P1375 (hActRIIB L33W, 19 aa linker, IgG1 YTE-DL) (Fc fusion)
chain: ETRECIYYNANWELERTNQSGLERCEGEQDKRWHCYASWRNSSGTIELVKKGCWLDDFNCYDRQECVATEENPQVYFCCCEGNFCNERFTHLPEAGGPEVTYEPPPTGGGGSGGGGSGGGGSGGGGTHTCPPCPAPELLGGPSVFLFPPKPKDTLYITREPEVTCVVVDVSHEDPEVKFNWYVDGVEVHNAKTKPREEQYNSTYRVVSVLTVLHQDWLNGKEYKCKVSNKALPAPIEKTISKAKGQPREPQVYTLPPSRDELTKNQVSLTCLVKGFYPSDIAVEWESNGQPENNYKTTPPVLDSDGSFFLYSKLTVDKSRWQQGNVFSCSVMHEALHNHYTQKSLSLSPG
As for B1, the “IC50, TGFβ-reporter HEK293 cell-based neutralization assay” value in the assay with activin A worked out at 0.53 nM; with activin B it was 2 nM; with GDF-8, 0.33 nM; with GDF-11, 0.39 nM. The “IC50, BMP-reporter HepG2 cell-based neutralization assay” value in the assay with BMP-9 is above 1000 nM; with BMP-10, above 100 nM.

B2: P1372 (hActRIIB L33W, 14 aa linker, IgG1 YTE-DL) (Fc fusion)
chain: ETRECIYYNANWELERTNQSGLERCEGEQDKRWHCYASWRNSSGTIELVKKGCWLDDFNCYDRQECVATEENPQVYFCCCEGNFCNERFTHLPEAGGPEVTYEPPPTGGGGSGGGGSGGGGTHTCPPCPAPELLGGPSVFLFPPKPKDTLYITREPEVTCVVVDVSHEDPEVKFNWYVDGVEVHNAKTKPREEQYNSTYRVVSVLTVLHQDWLNGKEYKCKVSNKALPAPIEKTISKAKGQPREPQVYTLPPSRDELTKNQVSLTCLVKGFYPSDIAVEWESNGQPENNYKTTPPVLDSDGSFFLYSKLTVDKSRWQQGNVFSCSVMHEALHNHYTQKSLSLSPG
With B2, the “IC50, TGFβ-reporter HEK293 cell-based neutralization assay” value with activin A came to 0.56 nM; in the assay with activin B, 2 nM; with GDF-8, 0.18 nM; with GDF-11, 0.53 nM. The “IC50, BMP-reporter HepG2 cell-based neutralization assay” value with BMP-9 was above 1000 nM; with BMP-10 it was above 100 nM.
